From patent US20120276075

Tests used:
[1] = target: NPY 1-36 (neuropeptide Y)

Chain of BSA, P02769 (P02769 25-607): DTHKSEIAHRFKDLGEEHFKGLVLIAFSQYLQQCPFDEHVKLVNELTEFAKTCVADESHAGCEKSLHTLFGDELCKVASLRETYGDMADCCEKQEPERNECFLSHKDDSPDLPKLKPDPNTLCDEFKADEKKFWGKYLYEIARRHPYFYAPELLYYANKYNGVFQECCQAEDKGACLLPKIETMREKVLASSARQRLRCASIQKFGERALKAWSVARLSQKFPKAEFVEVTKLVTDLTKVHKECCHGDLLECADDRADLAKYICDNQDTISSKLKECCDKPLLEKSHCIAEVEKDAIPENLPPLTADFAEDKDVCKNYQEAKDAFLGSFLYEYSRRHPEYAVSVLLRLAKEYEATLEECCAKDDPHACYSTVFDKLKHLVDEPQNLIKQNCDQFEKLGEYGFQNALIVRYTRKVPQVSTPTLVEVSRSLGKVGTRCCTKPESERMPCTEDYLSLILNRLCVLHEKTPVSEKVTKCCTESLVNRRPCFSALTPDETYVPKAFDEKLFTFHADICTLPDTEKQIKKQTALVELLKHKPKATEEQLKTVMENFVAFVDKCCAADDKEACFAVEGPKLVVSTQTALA

B1: recombinant Aspergillus fumigatus sedolisin SedB (tripeptidyl-peptidase), produced in Pichia pastoris (protein)
chain: TSTCDQVITPQCLKDLYNIGDYKADPNGGSKVAFASFLEEYARYDDLAKFEEKLAPYAIGQNFSVIQYNGGLNDQNSASDSGEANLDLQYIVGVSSPIPVTEFSTGGRGLLIPDLSQPDPNDNSNEPYLEFLQNVLKMDQDKLPQVISTSYGEDEQTIPEKYARSVCNLYAQLGSRGVSVIFSSGDSGVGAACLTNDGTNRTHFPPQFPAACPWVTSVGGTTKTQPEEAVYFSSGGFSDLWERPSWQDSAVKRYLKKLGPRYKGLYNPKGRAFPDVAAQAENYAVFDKGVLHQFDGTSCSAPAFSAIVALLNDARLRAHKPVMGFLNPWLYSKASKGFNDIVKGGSKGCDGRNRFGGTPNGSPVVPYASWNATDGWDPATGLGTPDFGKLLSLAMRR
- digestion of the peptide at acidic pH, mass spectrometry (NPY 3-36): NPY3-36 was not digested by recombinant SedB
- digestion of the peptide by AfuS28 and SedB added together, acidic pH, mass spectrometry (NPY 3-36): AfuS28 and SedB added together degraded NPY3-36 in Y, di- and tri-peptides
- degradation of the peptide by AfuS28 + SedB together, 2 hours at 37 C, pH 4 and pH 8, mass spectrometry (33-mer of gliadin): The enzyme composition AfuS28+SedB provides complete degradation of gliadin into several di-, tri-, tetra- and pentapeptides
- digestion of the peptide at acidic pH, mass spectrometry [1]: this enzyme removed tripeptides (YPS, KPD and NPG) from the N-terminus of NPY1-36 until position 10

B2: recombinant Aspergillus fumigatus prolyl protease AfuS28, His6-tagged, produced in Pichia pastoris (protein)
chain: LMPRAPLIPAMKAKVALPSGNATFEQYIDHNNPGLGTFPQRYWYNPEFWAGPGSPVLLFTPGESDAADYDGFLTNKTIVGRFAEEIGGAVILLEHRYWGASSPYPELTTETLQYLTLEQSIADLVHFAKTVNLPFDEIHSSNADNAPWVMTGGSYSGALAAWTASIAPGTFWAYHASSAPVQAIYDFWQYFVPVVEGMPKNCSKDLNRVVEYIDHVYESGDIERQQEIKEMFGLGALKHFDDFAAAITNGPWLWQDMNFVSGYSRFYKFCDAVENVTPGAKSVPGPEGVGLEKALQGYASWFNSTYLPGSCAEYKYWTDKDAVDCYDSYETNSPIYTDKAVNNTSNKQWTWFLCNEPLFYWQDGAPKDESTIVSRIVSAEYWQRQCHAYFPEVNGYTFGSANGKTAEDVNKWTKGWDLTNTTRLIWANGQFDPWRDASVSSKTRPGGPLQSTEQAPVHVIPGGFHCSDQWLVYGEANAGVQKVIDEEVAQIKAWVAEYPKYRKPHHHHHH
- degradation of the peptide, products detected by mass spectrometry (NPY 3-36): AfuS28 was also found to degrade NPY1-36 and NPY3-36, cleaving after proline residues
- digestion of the peptide by AfuS28 and SedB added together, acidic pH, mass spectrometry (NPY 3-36): AfuS28 and SedB added together degraded NPY3-36 in Y, di- and tri-peptides
- full length NPY3-36 remaining after 15 min with 1.8 mU of enzyme at 37 C (degradation kinetics, mass spectrometry) (NPY 3-36): Less than 10% of full length NPY3-36 was still present after 15 min incubation
- degradation of the peptide by AfuS28 + SedB together, 2 hours at 37 C, pH 4 and pH 8, mass spectrometry (33-mer of gliadin): The enzyme composition AfuS28+SedB provides complete degradation of gliadin into several di-, tri-, tetra- and pentapeptides
- proteolysis of a full length protein substrate (BSA, P02769): AfuS28 does not attack full length protein substrates such as resorufin-labeled casein and BSA
- degradation of the peptide, products detected by mass spectrometry (bradykinin (…)): Digestion of bradykinin (RPPGFSPFR, SEQ ID NO:28) resulted in RPP, FR, GFSPFR (SEQ ID NO:35) and PGFSPFR (SEQ ID NO:36) fragments
- degradation of the peptide, products detected by mass spectrometry [1]: AfuS28 was also found to degrade NPY1-36 and NPY3-36, cleaving after proline residues
- endoproteolytic activity (release of label from resorufin-labeled casein) (resorufin-labeled casein): Recombinant AfuS28 showed no detectable proteolytic activity using casein resorufin-labeled as a substrate
